These results are taken from US20160355591A1.

For test [1], the target named is HLA-DR (human leukocyte antigen-DR) on human lymphoma and leukemia cells and human lymphocytes (human). As to the kind of experiment: indirect FACS, Daudi cells, FITC-GAH Fc 2nd Ab; none 3.1; control antibody.
Test [2] shares this target. In words: indirect flow cytometry, RL cells, FITC-GAH Fc 2nd Ab; none 2.4; negative control antibody.
Test [3] deals with HLA-DR (L243 antigen) on canine lymphocytes and canine lymphoma cells (dog). In words: flow cytometry, dog lymphoma aspirate; none 3.24; control antibody.
Test [4] deals with HLA-DR (human leukocyte antigen-DR) on human lymphoma and leukemia cells and human lymphocytes (human). In words: indirect flow cytometry, SU-DHL-6 cells, FITC-GAH Fc 2nd Ab; none 4.6; negative control antibody.
For test [5] the target is unchanged. In words: indirect FACS, Namalwa cells, FITC-GAH Fc 2nd Ab; none 2.5; control antibody.
Test [6] has the same target. In words: indirect FACS, WSU-FSCCL cells, FITC-GAH Fc 2nd Ab; none 2.6; control antibody.
Test [7] shares this target. As to the kind of experiment: indirect FACS, Raji cells, FITC-GAH Fc 2nd Ab; none 6.8; control antibody.
Test [8] has the same target. In words: indirect flow cytometry, Ramos cells, FITC-GAH Fc 2nd Ab; none 3.1; negative control antibody.
For test [9], the target named is HLA-DR (L243 antigen) on canine lymphocytes and canine lymphoma cells (dog). As to the kind of experiment: flow cytometry, dog lymphoma aspirate; none 4.48; control antibody.
For test [10], the target named is HLA-DR (human leukocyte antigen-DR) on human lymphoma and leukemia cells and human lymphocytes (human). As to the kind of experiment: indirect FACS, Ramos cells, FITC-GAH Fc 2nd Ab; none 3.1; control antibody.
Test [11] has the same target. As to the kind of experiment: indirect flow cytometry, Namalwa cells, FITC-GAH 2nd Ab; none 2.52; control antibody (anti-CEA).
The target is the same in test [12]. As to the kind of experiment: indirect flow cytometry, Daudi cells, FITC-GAH Fc 2nd Ab; none 3.2; negative control antibody.
Test [13] shares this target. In words: indirect FACS, SU-DHL-6 cells, FITC-GAH Fc 2nd Ab; none 4.6; control antibody.
The target is the same in test [14]. In words: indirect flow cytometry, Namalwa cells, FITC-GAH Fc 2nd Ab; none 2.6; negative control antibody.
Test [15] has the same target. As to the kind of experiment: indirect flow cytometry, Raji cells, FITC-GAH Fc 2nd Ab; none 6.9; negative control antibody.
Test [16] has as its target HLA-DR (L243 antigen) on canine lymphocytes and canine lymphoma cells (dog). As to the kind of experiment: flow cytometry, canine lymphoma aspirate 150836; none 4.5; control antibody.
The target in test [17] is HLA-DR (human leukocyte antigen-DR) on human lymphoma and leukemia cells and human lymphocytes (human). In words: indirect flow cytometry, WSU-FSCCL cells, FITC-GAH Fc 2nd Ab; none 2.7; negative control antibody.
Test [18] deals with HLA-DR (L243 antigen) on canine lymphocytes and canine lymphoma cells (dog). As to the kind of experiment: flow cytometry, canine lymphoma aspirate 150836; none 3.2; control antibody.

B1: hMN-14 (labetuzumab, humanized anti-carcinoembryonic antigen IgG1) (antibody, INN chains, looked up, V domains shown)
VH: EVQLVESGGGVVQPGRSLRLSCSASGFDFTTYWMSWVRQAPGKGLEWIGEIHPDSSTINYAPSLKDRFTISRDNAKNTLFLQMDSLRPEDTGVYFCASLYFGFPWFAYWGQGTPVTVSS
VL: DIQLTQSPSSLSASVGDRVTITCKASQDVGTSVAWYQQKPGKAPKLLIYWTSTRHTGVPSRFSGSGSGTDFTFTISSLQPEDIATYYCQQYSLYRSFGQGTKVEIKR
In the case of B1, the geometric mean fluorescence in [1] was found to be 3.16; in test [2] it was 2.8; in test [4], 4.9; in [5], 2.36; in [6], 2.66; in test [7] it was 6.96. The geometric mean fluorescence was 3.1 in test [8]; 3.13 in test [10]; 2.49 in [11]; 3.2 in [12]; 4.94 in test [13]; 2.4 in test [14]. The geometric mean fluorescence worked out at 7 in test [15] and 2.7 in test [17]. For the same molecule, the mean FL amounted to 3.24 in test [3] and 3.2 in [18]. Moreover, the % Positive is 4.63% in test [9] and 4.6% in test [16].
